According to paper PMC6327041 (Nature Communications, 2019):
Where two headings read alike, the source gives them in different places.

Biological target: T1, KDM5A1-797 (Homo sapiens, UniProt P29375)
T1 construct: KDM5A1-797 was cloned into a pFASTBAC HTA vector; His (N, cleaved yes); made in house; host or cells: Sf21 insect cells (baculovirus)
T1 sequence (P29375 1-797): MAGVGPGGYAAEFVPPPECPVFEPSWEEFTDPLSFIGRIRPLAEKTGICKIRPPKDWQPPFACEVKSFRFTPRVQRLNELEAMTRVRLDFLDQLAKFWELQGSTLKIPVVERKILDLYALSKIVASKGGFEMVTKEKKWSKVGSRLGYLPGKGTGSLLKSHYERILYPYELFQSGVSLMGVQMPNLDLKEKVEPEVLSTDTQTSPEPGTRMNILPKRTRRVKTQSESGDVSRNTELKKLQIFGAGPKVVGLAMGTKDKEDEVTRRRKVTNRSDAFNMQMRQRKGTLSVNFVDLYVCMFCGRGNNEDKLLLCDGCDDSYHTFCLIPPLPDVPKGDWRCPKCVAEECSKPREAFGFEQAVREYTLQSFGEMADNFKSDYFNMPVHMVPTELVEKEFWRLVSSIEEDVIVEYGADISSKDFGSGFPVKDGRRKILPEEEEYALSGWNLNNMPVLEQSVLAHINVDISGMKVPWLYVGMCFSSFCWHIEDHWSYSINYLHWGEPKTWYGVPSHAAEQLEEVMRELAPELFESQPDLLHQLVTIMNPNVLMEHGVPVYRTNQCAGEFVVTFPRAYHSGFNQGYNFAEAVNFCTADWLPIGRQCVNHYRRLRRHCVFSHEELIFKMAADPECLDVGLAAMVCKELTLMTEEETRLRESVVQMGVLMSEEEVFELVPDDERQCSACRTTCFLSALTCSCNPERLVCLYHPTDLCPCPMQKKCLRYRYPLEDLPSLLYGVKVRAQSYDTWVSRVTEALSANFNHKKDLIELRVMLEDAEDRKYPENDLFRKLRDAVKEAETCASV
Experiment: KDM5A demethylation, FDH-coupled formaldehyde release assay
Assay type: biochemical
Conditions: for Km / kcat: n ≥ 3, s.e.m.
Protocol: WT KDM5A1-797 was expressed in Sf21 cells following Invitrogen Bac-to-Bac baculovirus expression system protocol. KDM5A1-797 was cloned into a pFASTBAC HTA vector. Purified bacmid was transfected in Sf21 cells. Approximately […] cells per well of a six-well dish were allowed to attach in 2 ml of SF-900 II SFM media containing 50 U ml^−1 penicillin and 50 μg ml^−1 streptomycin. While cells attached, 8 μl of Cellfectin II reagent (Invitrogen) in 100 μl of unsupplemented Grace’s medium was mixed with ~2–5 μg of bacmid in 100 μl of unsupplemented Grace’s medium and incubated for 15–30 min at 25 °C. Once cells were attached, media was removed and cells were washed with 2 ml of Grace’s unsupplemented media. The bacmid DNA:Cellfectin mixture was then diluted to 1 ml with Grace’s unsupplemented media and added to the well. Cells with bacmid:Cellfectin II mixture were incubated for 5 h at 27 °C. After 5 h of incubation, bacmid:Cellfectin mixture was removed and replaced with 2 ml of SF-900 II SFM 50 U ml^−1 penicillin and 50 μg ml^−1 streptomycin. Transfected cells were incubated 3–5 days or until signs of viral infection were observed. After transfection, the supernatant was spun down to remove the dead cells. The supernatant was then sterile filtered to obtain the P1 viral stock. To make P2, 20 ml of […] at ~2 × 10^6 cells per ml of sf21 was infected with 2 ml of P1 virus and incubated for 48–60 h. After 56 h, the cells were spun down and the supernatant was collected and sterile filtered to obtain P2 viral stock. Similarly, P3 viral stock from P2 viral stock was obtained. Generally, 1 l of Sf21 at 2 × 10^6 cells per ml was infected with ~40 ml of P3 virus for ~48–56 h. Cells were then collected and resuspended in the lysis buffer (25 mM HEPES pH 7.9, 350 mM NaCl, 5 mM KCl, 1.5 mM MgCl2, 10 mM imidazole, aprotinin 2 μg ml^−1, leupeptin 3 μg ml^−1, pepstatin 3 μg ml^−1, and 1 mM PMSF). Cells were homogenized by emulsiflex. After lysis, the supernatant was recovered by centrifuging at 35k r.p.m. for 45 min, and incubated with cobalt resin equilibrated in lysis buffer for 1 h at 4 °C. After incubation the resin was washed with wash buffer (25 mM HEPES, pH 7.9, 350 mM NaCl, 0.5 mM MgCl2, 10% glycerol, 10 mM imidazole, aprotinin 2 μg ml^−1, leupeptin 3 μg ml^−1, pepstatin 3 μg ml^−1, and 1 mM PMSF). His-KDM5A was eluted with elution buffer (25 mM HEPES pH 7.9, 100 mM NaCl, 0.5 mM MgCl2, 10% glycerol, 100 mM imidazole, aprotinin 2 μg ml^−1, leupeptin 3 μg ml^−1, pepstatin 3 μg ml^−1, and 1 mM PMSF). The His-tag was removed by overnight incubation with TEV protease at 4 °C in the dialysis buffer (25 mM HEPES, pH 7.9, 100 mM NaCl, and 2 mM DTT). After cleavage, protein was further purified by size-exclusion chromatography using a S200 column. Purified KDM5A was eluted, aliquoted and stored at −80 °C in 40 mM HEPES, pH 7.9, 50 mM KCl.
Michaelis–Menten parameters were determined using Graphpad Prism.

[1] = 38 µM H3 10mer effector peptide vs none
[2] = KDM5A1-797 WT (Table 3), no effector

Substance | rank of Km reduction among effector peptides (Ac-H3K4me3 21mer substrate, saturating effector peptide) | Km (Km of Ac-H3K4me3 21mer with saturating modified H3 10mer effector (20× Kd; H3K4me2 10× Kd), 1 μM KDM5A, 50 mM HEPES, 50 mM KCl, pH 7.5, room temperature, read-out: Demethylase activity Km with effector peptide (Fig. 4a)) | change of kcat on addition of effector peptide [1] | reduction in Km on addition of effector peptide [1] | kcat/Km (+H3 10mer peptide (38 µM)) | kcat (+H3 10mer peptide (38 µM), 1 μM KDM5A, pH 7.5, room temperature) | Km (+H3 10mer peptide (38 µM), 1 μM KDM5A, pH 7.5, room temperature, read-out: Km) | kcat/Km [2] | kcat [2] | Km (KDM5A1-797 WT (Table 3), no effector, read-out: Km) | kcat/Km (No effector peptide) | kcat (No effector peptide, 1 μM KDM5A, pH 7.5, room temperature) | Km (No effector peptide, 1 μM KDM5A, pH 7.5, room temperature, read-out: Km)
H3: unmodified N-terminal H3 tail 10mer peptide (H3 Ala1-Ser10), PHD1 effector ligand | highest reduction in Km | 16.8 ± 1.1 µM | – | – | – | – | – | – | – | – | – | – | –
Ac-H3K4me3 21mer: N-terminally acetylated 21mer H3K4me3 peptide, catalytic domain substrate | – | – | kcat remains similar | fivefold | 146 ± 12 mM⁻¹ min⁻¹ | 2.45 ± 0.04 min⁻¹ | 16.8 ± 1.1 µM | 29.4 ± 3.3 mM⁻¹ min⁻¹ | 2.82 ± 0.08 min⁻¹ | 95.5 ± 7.6 µM | 29.4 ± 3.3 mM⁻¹ min⁻¹ | 2.82 ± 0.06 min⁻¹ | 95.5 ± 7.6 µM
